From publication PMC8167854, “Transfer of stabilising mutations between different secondary active transporter families” (FEBS Open Bio, 2021) come the findings set out here.

The series deals with the molecule itself. The series is described as follows: SDS/PAGE of SEC fractions, bands identified by mass spectrometry; protein purified in 0.03% DDM, eluted from Superdex 200 10/300 in 20 mM Tris/HCl pH 7.5, 150 mM NaCl; fractions on a 12% Tris-Glycine SDS/PAGE gel; monomer and dimer bands.

B1: AtBOR1 M363Y (natural protein)
chain: not shown
notes: BOR1 borate transporter of Arabidopsis thaliana with the point mutation M363Y, made on the AtBOR1 WT gene; Expressed from pDDGFP-2 with a TEV-cleavable C-terminal yEGFP His-tag; tag removed with TEV protease before SEC; source: S. cerevisiae FGY217, purified in DDM (His-Trap, TEV cleavage, reverse IMAC, Superdex 200); not shown: yEGFP, C-terminal, cleaved; His-tag, C-terminal, cleaved
B1: the binding result is given as “binds”.

B2: Arabidopsis thaliana boron transporter 1 (AtBOR1), wild-type (natural protein)
chain: not shown
notes: BOR1 borate transporter of Arabidopsis thaliana (SLC4 family), full-length wild type; Expressed from pDDGFP-2 with a TEV-cleavable C-terminal yEGFP His-tag; also called WT AtBOR1; AtBOR1 WT; source: S. cerevisiae FGY217, purified in DDM (His-Trap, TEV cleavage, reverse IMAC, Superdex 200); not shown: yEGFP, C-terminal, cleaved; His-tag, C-terminal, cleaved
Take B2: the binding result is given as “binds”.

B3: AtBOR1 M363F (natural protein)
chain: not shown
notes: BOR1 borate transporter of Arabidopsis thaliana with the point mutation M363F, made on the AtBOR1 WT gene; Expressed from pDDGFP-2 with a TEV-cleavable C-terminal yEGFP His-tag; tag removed with TEV protease before SEC; source: S. cerevisiae FGY217, purified in DDM (His-Trap, TEV cleavage, reverse IMAC, Superdex 200); not shown: yEGFP, C-terminal, cleaved; His-tag, C-terminal, cleaved
For B3, the binding result is given as “binds”.
